Experimental data as given in the DeepSol protein solubility set.

Assay: soluble on expression in E. coli; label from the status in PepcDB or PDB records

| Sequence | soluble on expression in E. coli |
| --- | --- |
| MKIPIPSIGHVALLASAILFASSANAASDEDGIIIYNAQHESFAKSWAEGFTKDTGIKVTLRNGKDSELGNQLIQEGSSSPADVFLTENSPAMVLVDNAKLFAPLDAATQAQVAKEYRPEDGRWTGIAARSTVFVYNPAKISEAELPKSLMDLAKPEWKGRWAASPSGADFQAIVSAMLALKGEQATLEWLKAMKTNATAYKGNSTVMKAVNAGQIDGGVIYHYYPFVDQAKTGENSGNIKLHYFKNKDPGAFVSISGAGVLASSKHPQQAQKFVQWVTGKAGQDFLRESNSAFEYAVGVNAASNPKLVPLKDLDPPKVEVSKLNSKKVVELMTEAGLL | not soluble |
| MDDERKRKKYTLYLHPEKAADFQTLEAIESVPRSERGELFRNAFISGMALHQLDPRLPVLLTAILSEEFSADQVVTLLSQTTGWKPSQADIRAVLTELGASQSVEKMPPSATDSVQEAMNDVRLKMKKLF | soluble |
| MTIPTSYLNHTDAEAARKARATYRDGLVAPTSGIAPGFTQANMIVLPRDWAFDFLLYAQRNPKPCPVLDVSDPGSPTTLLAPGADLRTDLPLYRIWRDGKLAEETADATSAWAERDDLVAFLIGCSFTFETPMVEAGIEIRHMTDKSNVPMYLTNRPCRPAGRLKGNMVVSMRPIPASRVADAATISGRFPAVHGAPVHVGAPEQIGISDLSKPDFGDAVRIEPGEVPVFWACGVTPQAAVMASGVPFAITHAPGHMFITDIPDTAYHALEHHHHHH | soluble |
| MGSDKIHHHHHHMANLYDLKKFDLNLLVIFECIYQHLSISKAAESLYITPSAVSQSLQRLRAQFNDPLFIRSGKGIAPTTTGLNLHHHLEKNLRGLEQTINIVNKSELKKNFIIYGPQLISCSNNSMLIRCLRQDSSVEIECHDILMSAENAEELLVHRKADLVITQMPVISRSVICMPLHTIRNTLICSNRHPRITDNSTYEQIMAEEFTQLISKSAGVDDIQMEIDERFMNRKISFRGSSLLTIINSIAVTDLLGIVPYELYNSYRDFLNLKEIKLEHPLPSIKLYISYNKSSLNNLVFSRFIDRLNESF | not soluble |
| MNRIYLYLLIVLILAGCSSPGGRYDMSDDQAPDTPLSVEHIEDAHPQYEPYSFGGNKDYNLRGKSYRIIKNPKGFTESGKASWYGKKFHGHLTSNGEIYDMYSMTAAHKTLPIPSYVKVTNTDNGKSTVVRVNDRGPFHDGRIIDLSYAAAYKIGVVQAGTANVRIEVITVDKPTKPRPKSKNNALEYVIQVVSSQHIERVRTLAQNLGQNLSAPSFVESTNNTHRLFLGPFTDDDLTQTLLEQVKSAGYDSAFIKTINKRAK | not soluble |
| VIRRSSLSSTESEIRMDATTVSTTDDIWSPSWDDPFEPTTDHDDEFAELTDALRAVQEAVTRSRPTPEAAGRAARTLRDLAARLAAFEVGEDEQISGRRWDLAGRGQTLTPALHLDEVTENRARGHVVVGRFHSGRYAMNGGVTPLIFDEILARLANSCGRPWARTAYLHVNYRAPAPLDVELRVEAEFAGQDGRKRFMRGAMYHGDVLVADVEGLWIELKPEQTQNVSLAVGWGAEENS | not soluble |
| MDIKACYQNAKALLEGHFLLSSGFHSNYYLQSAKVLEDPKLAEQLALELAKQIQEAHLNIECVCSPAIGGILAGYELARALGVRFIFTERVDNTMALRRGFEVKKNEKILVCEDIITTGKSAMECAKVLEEKGAQIVAFGALANRGICKRAHSHLKAQEGACLPSHLPLFALEDFVFDMHKPSSCPLCATSVAIKPGSRGN | not soluble |
| YIDILNQARDYVYIMTPYLILDSEMEHALQFAAERGVDVKIIMPGIPDKKVPFALAKRYFPALLDAGVKIYEFTPGFVHAKVFIADDIKAVVGTINLDYRSLYHHFECATYMYQTDCLVDIKADFKETLKQSRRVTRSTLQKEKISTKLIGLVVKLVAPLL | not soluble |
| SFNTYQHLLPETVRHLPDVKKQLAMVRPGLSMLSIFICLKGTKEDLKLQSTNYYVYFDTDMDKAMERYVSMPKEKAPEHIPLLFIAFPSSKDPTWEERFPDRSTMTALVPMAFEWFEEWQEEPKGKRGVDYETLKNAFVEASMSVIMKLFPQLEGKVESVTGGSPLTNQYYLAAPRGATYGADHDLARLHPHAMASIRAQTPIPNLYLTGQDIFTCGLMGALQGALLCSSAILKRNLYSDLQALGSKVKAQKKKM | soluble |
| MIKKYTCKNGVRIVMENIPTVRSVAIGIWIHAGSRNENEKNNGISHFLEHMFFKGTETRSAREIAESFDSIGGQVNAFTSKEYTCYYAKVLDEHAKYALDVLADMFFNSTFDEEELKKEKNVVCEEIKMYEDAPDDIVHDMLTKATYETHPLGYPILGTEETLNTFTGDTLRQYIKDHYTPENVVVSIAGNIDEAFLQTVEQYFGSYEGTTNREQVHSPIFHFNKVARKKETEQAHLCLGYKGLQMGHEDIYNLIVLNNVLGGSMSSRLFQEVREQRGLAYSVFSYHSSYEDTGMLTLYGGTGSQQLDTLYETMQETLETLKNTGITEKELINSKEQLKGNLMLSLESTNSRMSRNGKNELLLRKHRSLDEIIESVNTVTKENVDELIRNMFTDEFSAALISPDGKLPKGIKL | not soluble |
| MGSDKIHHHHHHMLFHKFFDFFEGYEDCYVIIGGNAAAIWLAQDHQDFRATQDYDMVVIFENSQLGFSQKFDDFIEKYGYLCVEIGGDVNKKKVYYRFALDPALAVTGVPQQIELFSKIPLRYELRLPTETMPLHFATGPSLSAIVLNDDYYSLLKQCQQKIGHVSILSVPGLIYFKAKAHLDIRQRLANGDKLRHRANKNKHYKDVCRLCDLIIENQTFDSKVVPRTCQNDLKSFIQLVEAEPEQIFKKRFKSDPDFDLNRDEVVRVLRSLLPTS | not soluble |
| MGSDKIHHHHHHMHGREAEDGVRSNPTGRQLRFGAELRKLREQAGLSATDAGQLLGIKQTQVSNMEAGRVGVSADRVRTLACHYECSDKALVEAIAAMTGDRTRGWWEEYREILPVGLLDLAELEHHATRLRTAVTVHIPGLFQTTEYAREIFRQAVPELPQPDVEHRVSFRIKRQAILFRDPPTPHQIIVHEAALRMRFGGSDVTRDQLKYLTAMNEREHISVQVIPFDTGVLPGSGQSIYYAEGPVPQLDTVNLDQSHGPVFLDAGAQLRKYRGLLDRMESAALSPEDSQKFIHTILKAL | not soluble |
| MGSDKIHHHHHHMARVKEEADRISEQANSHIENIRRQIEQEKNDWAAEKQKLIEEAKAEGFEQGVALGKAEAMKQYAELIGQANTITEMSRKAVEDKLEDANEEIVELAVALAKKVWQQKSDDKEAFLLLVQQVINEVKEYDDISIYVDPYYYETIFQQKDEIQQLLYKECRLGIYADEKAQKGTCYIETPFGRVDASVDTQLMQLKDKLLTALEAGAAE | not soluble |
| MGSDKIHHHHHHMLSVFVVNLRSNSAPFSFSRLLMHTTIVNERSLRTCNFPITLQDIRTLKELYRLKAETRDLRKPIVRNIMKQRVVGKGCLESLKNALYSLETIYIDDYTGQRLLRIDGMKQIEVDLTYEIRELQKDIYYLEYGEDRFIEYLAKFIPGFTDYVTEGVEMLRGKSFNAFITDRDGTTNNYCGRYRSSIQPIYNSVFLSRFAKNCCRYPMIVTSAPLKDFGILNVSINPEHIFVYAGSKGREFIDIDGQFHSFPIEPGKQELIRLLNERMQLLLLDPSFEKFNFIGSALQMKFGQTTIARQDITRSVNEAESAAFLEKIKGIVRDIDPEGKNFRIEDTGLDIEIILTIDVDPKTGMIRDFDKGDGLEFICRKMNIDHTGEPVLVCGDTSSDIPMLKKAMEMYDDVWAIFVTRDEKLMQRVREICPKSYMVPYPDILLTILGLLSL | not soluble |
| RARADKQHVLDMLFSAFEKHQYYNLKDLVDITKQPVVYLKEILKEIGVQNVKGIHKNTWELKPEYRHYQ | soluble |
| MSDPADVFDLVGLTEYEATALEQLLSLGRTTAPNLAEASGIPKARVYGVLESLSDRGFIKLIPGRPKEYQPKSPSDILDRAVENRKQSYESFAADMDSYRDAFLAEYEPRFERANEDISPTAELFHVVDVGEPSERETRRLYDDADETLRVITNSFAYLDNVERALAETLDRGVEVNVLFLHPDALPPEKAAVQADIVDRLTAEYPAIDLRFSTEKLPWRGTLVDPSMDYDSGEAILLVEEPDVPNHMRQAAITDNGSFVAGMKRYFDLVWEYESVQRSN | not soluble |
| MIFAKGHGTQNDFVLLPDVDAELVLTAARVAALCDRRKGLGADGVLRVTTAGAAQAVGVLDSLPEGVRVTDWYMDYRNADGSAAQMCGNGVRVFAHYLRASGLEVRDEFVVGSLAGPRPVTCHHVEAAYADVSVDMGKANRLGAGEAVVGGRRFHGLAVDVGNPHLACVDSQLTVDGLAALDVGAPVSFDGAQFPDGVNVEVLTAPVDGAVWMRVHERGVGETRSCGTGTVAAAVAALAAVGSPTGTLTVHVPGGEVVVTVTDATSFLRGPSVLVARGDLADDWWNAMG | not soluble |
| MLAYPHLFTPLDLGFTTLKNRILMGSMHTGLEELPDGPQRLAAFYAERAAGGVGLIVTGGIAPNMKGGVYQGASVLNDAAQIPHHQVVTEAVHQAGGKIALQILHAGRYSYQKHPVAPSALQAPINPFVPQALSHEEILQTIADFAHCAQLAKQAGYDGVEIMGSEGYLINQFLTARTNQRDDEWGGDFTHRMRFAVEIVRAVRQATGHDFILIYRLSMLDLVEEGSNWVEIEQLAQAVEQAGATVINTGIGWHEARIPTIATMVPRAGFSWVTRKLMGKVNIPLITTNRINDPAVAEQVLADGCADMVSMARPFLADAAFVQKAAQGRADEINTCIGCNQACLDQIFDGKLTSCLVNPRACRETEMPELPTDAPKRLAVVGAGPAGLAFAVTAARRGHQVTLFDAAAEIGGQFNIAKQIPGKEEFYETLRYFRRQLVLNGVTLQLNTLVQVKQLAEFDEVILACGIQPRLPCINGIDHPKVLTYLDVLRDKKPVGQRVAIIGAGGIGFDTAEYLSQSGDSPRFDSTAFSTEWGIDQDLAHRGGLSPAGAKVPPSPRQIFLLQRKASKVGEGLGKTTGWIHRTSLAMRGVKMLNSVSYEAIDDKGLHIIRAEQACCLPVDTIIICAGQEPRRELHQPLLDMGKTVYLIGGADKAVELDARRAIDQGTRLALAI | not soluble |
| MLFHLPKLPAELRVSHLNARVNEQRKKIAQTTASKLEFLQLTQQLVKEAKIRKKNNQKIFVLDFKGDIQASAVDQLREEITLILATAKSGKDRVVLRLESPGGMVHGYGLAAAQLVRLRDAGFHLTIVVDKVAASGGYMMACIANEIVSAPFAILGSIGVVAQVPNFNRLLKEHNVDFELYTAGEYKRTVTMFGENTPEGKAKFEEELKQTHALFKHFVEKYRPQLNVEKVATGEHWYGQDALDLNLVDKLQTSDEYLLSLLPQHDVYVITTRKKPTLGERLGLQAAQLADSFIPAVMNKVVESLVNANSHLVQMRDPKILEHHHHHH | not soluble |
| MGSDKIHHHHHHMKLLYFKEHLSCINYQINVNTGFVYYNLEKDSVSKIDNSASPCILFLLDGEVSIDSGEYQNVHIEKDKMVLIPQHVDNKIEVIYDAKCLLLFWNKDIRVCDKVYMNSLSSYKERKKEMCVLPIRDPLQAVLNSVVAYLYAKMQCKHMHLIKQQEVLLVLRGYYTKKELFTFFSSILGNTGHFEDFVMNNYRKVKSVKEFAGLYCTSERSFNRKFQNCFKESPYQWMQKKKAELIREKISESDTPFQEIAMDFDFNSQAHFTSYCKRLFGMTPSKLRTESKKVAPDLEY | not soluble |
| MAHHHHHHMSAHEEEIDMILSMFSDECERYEGTSDSIIVHLPFHFELQVTLPPHGYPDASYPKLYLLSSPNAQLASAFSQAVYRRMRDEISLGIPMLALLIPLAQSVAEELKDLKERAEKARQDEAVERMSELQRKEEHRRETGIAIWSGQAIVDRRSRFVAHMARVHSMDEVREVVGHLRSVKSIACAAHPTIYAYRFTDANGVLQKDSDDDGESGASIKMMFLLDHLQIDGYVVVVTRWWGGILLGPDRFKHIMEVTKNLLLTIPEREKEMAASAKRKSLR | soluble |
| MAMSIELRTKYGQIDISNEVIAMVAGGAAVDCYGIVGSKNQIKDGLTEILRKENFSRGVQVRQEGEQIHIDMYIIVSYGTKISEVAHNVQTKVKYTVNQTIGLAVDSVNIYVQGVRVTNPLEHHHHHH | not soluble |
